Data published in article PMC8140153, “Fluorescence Fluctuation Spectroscopy enables quantification of potassium channel subunit dynamics and stoichiometry” (Scientific Reports, 2021).

Legend:
[1] = target: the molecule itself; test: Number and Brightness (N&B) analysis of TIRF image sequences; living CHO cells transfected with one mEGFP-tagged subunit alone; plasma membrane, 37 °C, 5% CO2; GAP-mEGFP as monomeric reference; oligomerization state corrected for protein maturation and misfolding
[2] = target: T1, KCNQ1-mCherry (human KCNQ1, C-terminally mCherry-tagged) (human, UniProt P51787 1-676); test: Number and Brightness (N&B) analysis of TIRF image sequences; living CHO cells co-transfected with KCNE2-mEGFP and KCNQ1-mCherry; cells with fast micro-diffusion, E2f(Q1) (Dmicro > 0.02 µm^2 s^-1); 37 °C, 5% CO2; GAP-mEGFP as monomeric reference; conditions: partners not purified
T1 construct: KCNQ1 (Kv7.1) alpha subunit, human; cDNA in a CMV-based expression construct; also called Q1 in E2(Q1); source: CHO cells, co-transfected (Lipofectamine 3000), in living cells; not shown: mCherry, C-terminal, kept
T1 sequence (looked up): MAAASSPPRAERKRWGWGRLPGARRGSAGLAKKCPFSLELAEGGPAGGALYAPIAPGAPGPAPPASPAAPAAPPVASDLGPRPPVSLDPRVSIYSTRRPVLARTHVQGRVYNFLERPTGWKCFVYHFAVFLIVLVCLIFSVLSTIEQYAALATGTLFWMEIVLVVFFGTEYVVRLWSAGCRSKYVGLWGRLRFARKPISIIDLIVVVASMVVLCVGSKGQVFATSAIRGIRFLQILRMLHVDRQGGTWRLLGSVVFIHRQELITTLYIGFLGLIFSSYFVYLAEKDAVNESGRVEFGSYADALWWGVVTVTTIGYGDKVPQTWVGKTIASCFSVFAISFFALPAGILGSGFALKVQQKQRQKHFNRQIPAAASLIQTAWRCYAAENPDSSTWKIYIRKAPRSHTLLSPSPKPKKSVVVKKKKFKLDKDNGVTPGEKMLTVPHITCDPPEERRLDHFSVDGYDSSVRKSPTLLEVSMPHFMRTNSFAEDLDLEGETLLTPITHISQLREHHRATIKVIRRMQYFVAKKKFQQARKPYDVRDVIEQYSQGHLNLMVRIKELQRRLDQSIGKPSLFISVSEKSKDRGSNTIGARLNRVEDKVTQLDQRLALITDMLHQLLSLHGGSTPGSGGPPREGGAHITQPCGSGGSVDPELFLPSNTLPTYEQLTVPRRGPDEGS

B1: KCNE2-mEGFP (human KCNE2, C-terminally mEGFP-tagged) (natural protein, UniProt Q9Y6J6 1-123, looked up)
chain: MSTLSNFTQTLEDVFRRIFITYMDNWRQNTTAEQEALQAKVDAENFYYVILYLMVMIGMFSFIIVAILVSTVKSKRREHSNDPYHQYIVEDWQEKYKSQILNLEESKATIHENIGAAGFKMSP
notes: KCNE2, human, single transmembrane segment beta subunit; cDNA in a CMV-based expression construct; also called KCNE2 subunit; E2(Q1), E2f(Q1), E2s(Q1) when co-expressed with KCNQ1-mCherry; source: CHO cells, transfected (Lipofectamine 3000), in living cells; not shown: mEGFP, C-terminal, kept
stoichiometry N [1]: 2 | stoichiometry N [2]: 4 E2 subunits per KCNQ1-KCNE2 complex
